In patent US12194082B2, “Compositions and methods for treatment of homocystinuria” (THE REGENTS OF THE UNIVERSITY OF COLORADO, priority 2016, dated 2025):
Like-named read-outs stand apart in the source and are kept apart here.

Experiments:
[1] = system: homocysteine, cystathionine, cysteine; experiment: Pharmacodynamics after a single dose of PEGylated htCBS C15S in HO mice; type: in vivo
Protocol: (§1) Plasma metabolites homocysteine, cystathionine and cysteine were determined by stable-isotope-dilution liquid chromatography mass spectrometry as previously described in (Allen et al., 1993, Metabolism, 42: 1448-1460). Measurements of total non-protein bound homocysteine and other aminothiols as well as of amino acids in tissue were performed as described in (Maclean et al., 2010b. Mol. Genet. Metab. 101, 153-162). Metabolites were determined by stable-isotope-dilution liquid chromatography mass spectrometry.
For 20NHS PEG-htCBS C15S, HO mice were administered SQ a dose of 5, 10 or 15 mg/kg dose or were administered IV a dose of 10 mg/kg. For 400MA-htCBS C15S, HO mice received a single dose of 10 mg/kg either SC or IV of one of the three forms: (i) a mixture of all species, where no separation of individual forms has been attempted (mix), (ii) a homoPEGylated specie (Peak 1), and (iii) a hetero/hemiPEGylated species (Peak 2).
Both male and female HO mice were used in this example, and each group contained 3 to 4 mice. Two groups of mice designated “A” and “B” were used for each route of administration to minimize the blood volume taken from any one mouse. For SC administration, blood was collected from group A at 0.5, 3, 24, and 72 hours post-injection and from group B at 1, 6, 48, and 96 hours post-injection. […]

Hcy, Cys = experiment: Plasma metabolites in the I278T facial alopecia study; type: in vivo, I278T mice; details: 3 times per week, 24 hours after injection
Protocol: as §1
The second group (n=3; 2 males, 1 female) was continuously injected with 7.5 mg/kg of 200MA0B PEG-htCBS C15S administered subcutaneously from 3 W of age until 41 weeks of age. Weight was initially monitored weekly. Physical look was recorded before the experiment and was monitored weekly or bi-weekly after the initial 6 W injection regimen. Metabolite levels were checked before the experiment and 24 hours after the last injection of initial 6 W injection regiment and then followed weekly or bi-weekly.
The I278T mice, which were at least 120D (W17) old and had visible, fully developed facial alopecia, were split into 2 groups. […] Metabolite levels were determined prior to the treatment initiation and measured during the study 24 hours after the injection, and weight and physical look were initially monitored weekly, and later bi-weekly.

[2] = for Peak @ SS, predicted / Trough @ SS, predicted: 80% bioavailability assumed; for Extrapolated concentration: hypothetical single dose curve
Protocol: Using a dose of 5 mg/kg and correcting for the difference in body surface area between humans (70 kg) and mice (0.025 kg), a dose of 0.4 mg/kg was estimated to be the efficacious human equivalent dose (HED). […] Since the substrate for 20NHS PEG-htCBS C15S activity (Hcy and serine) was the same across species and the site of action was the blood pool itself, these parameters provide an accurate estimate of the target human plasma levels required for efficacy in a 20NHS PEG-htCBS clinical trial.
Interspecies comparisons were conducted based upon body surface area scaling assuming an 80% bioavialability in all 3 species (mouse, rat and monkey) to determine if a linear correlation existed between the log body weight and the log of various PK parameters (AUC/dose, Cmax per dose and T1/2). […] Linear correlations allow predictions of the clinical dose and dosing regimen from the preclinical data to be made.
By extrapolating to the log body weight for humans (70 kg) for each parameter, the AUC/dose, Cmax/dose, and T1/2 was calculated for human subjects.
The human predicted efficacious dose was calculated from the efficacious dose in mice (5 mg/kg) by allometric scaling to be 0.4 mg/kg in a 70 kg human.

[3] = body surface area scaling, 70 kg human
[4] = human, 0.33 mg/kg SC 1x/week (168 h)
[5] = human, 0.33 mg/kg SC 2x/week (84 h)
[6] = human, 0.66 mg/kg SC 1x/week (168 h)
[7] = human, 0.66 mg/kg SC 2x/week (84 h)
[8] = human, 1 mg/kg SC 1x/wk (168 h)

Substance: 20NHS PEG-htCBS C15S: htCBS C15S PEGylated with ME-200GS PEG (20 kDa linear NHS ester-activated PEG)
- single dose producing maximal efficacy response ([1]; SC, HO mouse model): 5 mg/kg
- plasma levels of Hcy over time ([1]; single 10 mg/kg SC dose): remain decreased up to 72 hours
- Hcy and Cys change vs 400MA PEG-htCBS C15S (Hcy, Cys): decrease Hcy levels and increase Cys levels more substantially
- Initial Cmax, predicted ([2]; 0.33 mg/kg): 11.3 mU/μL
- Initial Cmax, predicted ([2]; 0.66 mg/kg): 22.6 mU/μL
- Initial Cmax, predicted ([2]; 1 mg/kg): 34 mU/μL
- AUC/dose, human predicted value [2, 3]: 7474 (mU-h/mL)/(mg/kg)
- Cmax/dose, human predicted value [2, 3]: 34 (mU/μL)/(mg/kg)
- E intercept of hypothetical single dose PK curve ([2]; human): 43.079
- Peak @ SS, predicted [2, 4]: 22.6 mU/μL
- Trough @ SS, predicted [2, 4]: 15.4 mU/μL
- Peak @ SS, predicted [2, 5]: 41 mU/μL
- Trough @ SS, predicted [2, 5]: 34.5 mU/μL
- Peak @ SS, predicted [2, 6]: 45.2 mU/μL
- Trough @ SS, predicted [2, 6]: 30.8 mU/μL
- Peak @ SS, predicted [2, 7]: 82 mU/μL
- Trough @ SS, predicted [2, 7]: 69 mU/μL
- C1min, predicted [2, 8]: 22.3
- Peak @ SS, predicted [2, 8]: 67.9 mU/μL
- Trough @ SS, predicted [2, 8]: 46.2 mU/μL
- C1min, predicted ([2]; human, 1 mg/kg SC 2x/wk (84 h)): 29.0
- Peak @ SS, predicted ([2]; human, 1 mg/kg SC 2x/wk (84 h)): 123 mU/μL
- Trough @ SS, predicted ([2]; human, 1 mg/kg SC 2x/wk (84 h)): 109 mU/μL
- Extrapolated concentration ([2]; human, 0 hours): 0
- Extrapolated concentration ([2]; human, 1 hours): 0.9
- Extrapolated concentration ([2]; human, 2 hours): 2
- Extrapolated concentration ([2]; human, 4 hours): 4.3
- Extrapolated concentration ([2]; human, 8 hours): 8
- Extrapolated concentration ([2]; human, 20 hours): 20
- Extrapolated concentration ([2]; human, 48 hours): 33.3
- Extrapolated concentration ([2]; human, 72 hours): 34
- Extrapolated concentration ([2]; human, 96 hours): 28
- Extrapolated concentration ([2]; human, 240 hours): 16.7
- Extrapolated concentration ([2]; human, 336 hours): 12
- Extrapolated concentration ([2]; human, 408 hours): 8.5
